Test results from patent JP2024051908A (dated 2024).

B1: MO2 (antibody, V domains shown)
VH: EVQLVESGGGLVKPGGSLSLSCVASGFTFSDYRMSWIRQAPGKGLEWVSYISSSSGYKDYADSVKGRFTISRDNAKNSLSLQMNSLRVEDTAVYYCARDVGVVTATPGYWGQGVPVSVSS
VL: DIVMTQSPATLSVSPGERATLSCRASQSVGSNLAWYQQKPGQAPRLLIYDTSTRATGVPARFSGSGSGTDFTLTISSLQSEDFAVYLCHQYDQWPPAFGPGTRVDIK
B2: MO1 (antibody, V domains shown)
VH: EVQLVESGGGMVQPGRSLRLSCAASGFTFDDYAMHWVRQIPGKGLEWVSGISWNSGDIGYADSVKGRFTISRDNAKNSLHLQMNSLRAEDTALYYCAKDKTYDSPGYFLNSFDYWGQGTLVTVSS
VL: DIQMTQSPSSLSASVGDRVTITCRASQGISSYLVWYQQKPGKAPKFLIYAASTLQSGVPSRFSGSGSGTDFTLTISSLQPEDFATYYCQQLYSYPITFGQGTRLEIK

How the values were obtained:
Experiment in all cases: cell-based or functional assay
[1] = biological target: SARS-CoV-2 Delta変異株のスパイクタンパク質 (authentic virus) (SARS-CoV-2 Delta)
[2] = biological target: SARS-CoV-2 オミクロンBA.2変異株のスパイクタンパク質 (authentic virus) (SARS-CoV-2 Omicron BA.2)
[3] = biological target: SARS-CoV-2 オミクロンBA.1変異株のスパイクタンパク質 (authentic virus) (SARS-CoV-2 Omicron BA.1)
[4] = biological target: SARS-CoV-2 オミクロンBA.1.1変異株のスパイクタンパク質 (authentic virus) (SARS-CoV-2 Omicron BA.1.1)
[5] = biological target: SARS-CoV-2 D614G変異株のスパイクタンパク質 (authentic virus) (SARS-CoV-2 D614G, UniProt P0DTC2 14-1273)
[6] = biological target: SARS-CoV-2 オミクロンBA.5変異株のスパイクタンパク質 (authentic virus) (SARS-CoV-2 Omicron BA.5)

Binder | IC50, プラーク減少中和試験 (PRNT) [1] | IC50, プラーク減少中和試験 (PRNT) [2] | IC50, プラーク減少中和試験 (PRNT) [3] | IC50, プラーク減少中和試験 (PRNT) [4] | IC50, プラーク減少中和試験 (PRNT) [5] | IC50, プラーク減少中和試験 (PRNT) [6]
B1 | 0.0882 µg/mL | 0.151 µg/mL | 0.0177 µg/mL | 0.036 µg/mL | 0.0658 µg/mL | 
B2 | 0.0158 µg/mL | 0.0203 µg/mL | 0.004 µg/mL | 0.0106 µg/mL | 0.0236 µg/mL | 0.0157 µg/mL
